Experimental findings from patent US20190016796A1 (UNIVERSITAT ZURICH, published 2019) are described below.

In experiment [1] the target is T1, human interleukin-2 (human, UniProt P60568 21-153).
T1 construct: Teceleukin is named only for the in vivo treatments; also called hIL-2; human IL-2
Put plainly: SPR, antibody amine-coupled to GLM chip, hIL-2 as analyte (100 nM, three-fold dilutions). As to the method:
For this experiment an amine coupling GLM chip was used. The activation of the carboxylic acid groups in the chip was done using a mix of 1-ethyl-3-3-dimethylaminopropyl carbodiimide hydrochloride (EDC at 0.2 M) and sulfo N-hydroxysulfosuccinimides (s_NHS at 0.05M) at 30 μl/min for 420 seconds (s). […] Deactivation was followed adding ethanolamine HCl at 30 μl/min for 300 s. Finally human IL-2 was added at different concentrations (starting from 100 nM and followed by three-fold dilutions) at 100 μl/min, 600 s association, and 240 s dissociation.
In order to characterize the binding properties of the anti-human IL-2 mAbs the binding to human interleukin-2 was tested with surface plasmon resonance binding assays.
For orientation: In SPR one partner is held on a chip, and binding of the other changes the refractive index at the surface.

The target in experiment [2] is T2, murine interleukin-2 (mouse, UniProt P04351 21-169).
T2 construct: also called mouse IL-2; mIL-2
T2 sequence (looked up): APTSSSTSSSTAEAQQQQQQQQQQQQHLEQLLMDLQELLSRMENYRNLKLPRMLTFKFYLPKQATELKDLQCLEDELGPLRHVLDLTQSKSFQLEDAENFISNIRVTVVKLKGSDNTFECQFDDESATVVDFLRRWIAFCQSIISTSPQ
Put plainly: SPR, NARA1 amine-coupled to a GLM chip, mouse IL-2 injected at 10 to 0.041 nM.

T1 sequence (P60568 21-153 limits assumed): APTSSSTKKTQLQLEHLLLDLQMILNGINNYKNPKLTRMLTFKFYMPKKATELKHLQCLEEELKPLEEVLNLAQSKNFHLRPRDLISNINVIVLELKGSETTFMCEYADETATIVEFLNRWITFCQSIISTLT

B1: monoclonal antibody NARA1 (antibody, mouse IgG2a, kappa, V domains shown)
VH: QVQLQQSGAELVRPGTSVKVSCKASGYAFTNYLIEWVKQRPGQGLEWIGVINPGSGGTNYNEKFKGKATLTADKSSSTAYMQLSSLTSDDSAVYFCARWRGDGYYAYFDVWGAGTTVTVSS
VL: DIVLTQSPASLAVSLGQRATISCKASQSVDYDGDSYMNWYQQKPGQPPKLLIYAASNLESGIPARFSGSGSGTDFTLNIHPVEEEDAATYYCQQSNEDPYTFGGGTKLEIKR
notes: also called hIL-2 mAb
What is called Kd is the constant that tells how readily two partners part at equilibrium. A low value points to a tighter complex. As usually defined, the koff is a measure of how fast the partners let go of each other. High values mean a short-lived complex, low ones a long-lived complex. In experiment [1], B1 gave an equilibrium dissociation constant (Kd) of 1.2 nM and a koff of 2.08e-05 s⁻¹. In addition, in experiment [2], the binding result is “no binding (tested: 10 nM)”.
